{
  "source": "patent US20220064674A1",
  "about": "(MILTENYI BIOTEC B V, published 2022)",
  "binders": {"B1": {"name": "CD62L specific antibody derived from the same clone (parental antibody) (antibody, V domains shown)", "VH": "EVKLVESGGGLVKPGGSLKLSCAASGFTFSSYAMSWVRQTPEKRLEWVASISSGGSTYYPDSVKGRFTISRDNARNILYLQMSSLRSEDTAMYYCARDDDGYYDYWGQGTTLTVSS", "VL": "not shown"}},
  "molecular_target": "T1, CD62L (L-selectin) expressed on cells (human, UniProt P14151 39-372)",
  "T1 construct": "whole, on cells; also called HT1080-CD62L",
  "T1 sequence": "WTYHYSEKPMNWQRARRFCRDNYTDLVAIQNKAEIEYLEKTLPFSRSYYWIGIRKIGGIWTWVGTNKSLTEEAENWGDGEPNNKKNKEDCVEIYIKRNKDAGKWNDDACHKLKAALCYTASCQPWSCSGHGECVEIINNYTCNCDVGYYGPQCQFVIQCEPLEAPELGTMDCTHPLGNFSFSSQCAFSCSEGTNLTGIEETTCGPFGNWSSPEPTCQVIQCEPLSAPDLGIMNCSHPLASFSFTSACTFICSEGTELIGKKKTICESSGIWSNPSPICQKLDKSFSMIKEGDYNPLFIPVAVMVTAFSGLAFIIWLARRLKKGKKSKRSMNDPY",
  "assay": "competition and binding assay on PBMC, flow cytometry",
  "data": [
    {"binder": "B1", "values": [
      {"measurement": "binding result", "value": "binds"}
    ]}
  ]
}
